The record followed here is CN116925225A (CAS BLOOD HEMATONOSIS HOSPITAL INST OF BLOOD HEMATONOSIS CAS, dated 2023).

The target in this experiment is T1, 人CD7 (human CD7 on the surface of Jurkat, Molt4, CCRF-CEM and Hut78 cells) (human, UniProt P09564 26-240).
T1 construct: whole, on cells; also called CD7抗原
T1 sequence (looked up): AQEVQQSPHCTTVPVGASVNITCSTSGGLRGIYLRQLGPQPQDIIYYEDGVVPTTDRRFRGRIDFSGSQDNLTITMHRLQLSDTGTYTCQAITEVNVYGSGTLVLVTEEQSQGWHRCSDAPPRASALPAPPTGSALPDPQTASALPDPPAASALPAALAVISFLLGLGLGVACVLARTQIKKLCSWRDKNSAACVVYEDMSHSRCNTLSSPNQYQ
As to the kind of experiment: FACS, 0.15μg/100μl antibody on 2×10^5 Jurkat, Molt4, CEM and Hut78 cells (high in human CD7). (In general: In flow cytometry, cells or beads pass a laser one at a time.)

B1: 单克隆抗体HIT7 (CD7-HIT7, mouse anti-human CD7 monoclonal antibody) (antibody, V domains shown)
VH: QVQLQESGPGLVKPSQTVSLTCTVTGISITTGNYRWSWIRQFPGNKLEWIGYIYYSGIITYNPSRTSRTTITRDISKNQFFLEMNSLTAEDTATYYCARERGIYYDSLWYFDVWGAGTTVTVSS
VL: DIVLTQSPASLAVSLGQRATISCRASKSVSASGYSYMHWYQQKPGQPPKLLIYLASNLESGVPARFSGSGSGTDFTLNIHPVEEEDAVTYYCQHSRELPYTFGGGTKLEIKR
notes: also called 本发明单克隆抗体; 鼠抗人CD7单克隆抗体
As to B1, the binding result was “binds”.
